Source: US20240287172A1 (SCIRHOM, published 2024)

T1: hiR1-FL-WT-T7 (human, UniProt Q96CC6 1-855)
T1 construct: on MEF-DKO cells
T1 sequence: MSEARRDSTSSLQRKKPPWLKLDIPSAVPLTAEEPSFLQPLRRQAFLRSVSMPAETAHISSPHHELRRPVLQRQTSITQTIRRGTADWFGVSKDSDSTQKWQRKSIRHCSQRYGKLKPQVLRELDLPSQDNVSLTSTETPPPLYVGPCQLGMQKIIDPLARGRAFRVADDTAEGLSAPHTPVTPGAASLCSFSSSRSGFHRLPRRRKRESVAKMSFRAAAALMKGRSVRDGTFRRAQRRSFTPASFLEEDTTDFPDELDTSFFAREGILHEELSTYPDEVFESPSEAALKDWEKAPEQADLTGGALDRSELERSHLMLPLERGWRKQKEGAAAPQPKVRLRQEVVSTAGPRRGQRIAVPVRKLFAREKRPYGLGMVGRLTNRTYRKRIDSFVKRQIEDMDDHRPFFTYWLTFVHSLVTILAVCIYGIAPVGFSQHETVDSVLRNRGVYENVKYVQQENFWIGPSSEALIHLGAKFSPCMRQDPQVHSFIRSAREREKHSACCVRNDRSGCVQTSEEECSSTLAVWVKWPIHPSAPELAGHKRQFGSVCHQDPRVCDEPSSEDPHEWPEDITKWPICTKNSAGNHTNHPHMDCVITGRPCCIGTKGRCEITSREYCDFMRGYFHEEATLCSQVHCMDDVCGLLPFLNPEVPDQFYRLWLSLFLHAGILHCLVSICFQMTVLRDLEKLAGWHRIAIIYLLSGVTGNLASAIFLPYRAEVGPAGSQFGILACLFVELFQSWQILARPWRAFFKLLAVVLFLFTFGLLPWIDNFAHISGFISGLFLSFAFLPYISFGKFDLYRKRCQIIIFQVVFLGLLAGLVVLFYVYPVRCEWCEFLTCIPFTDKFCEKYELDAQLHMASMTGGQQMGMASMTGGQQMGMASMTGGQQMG

T2: hiR2-FL-L438S-T7 (human, UniProt Q6PJF5 1-856)
T2 sequence: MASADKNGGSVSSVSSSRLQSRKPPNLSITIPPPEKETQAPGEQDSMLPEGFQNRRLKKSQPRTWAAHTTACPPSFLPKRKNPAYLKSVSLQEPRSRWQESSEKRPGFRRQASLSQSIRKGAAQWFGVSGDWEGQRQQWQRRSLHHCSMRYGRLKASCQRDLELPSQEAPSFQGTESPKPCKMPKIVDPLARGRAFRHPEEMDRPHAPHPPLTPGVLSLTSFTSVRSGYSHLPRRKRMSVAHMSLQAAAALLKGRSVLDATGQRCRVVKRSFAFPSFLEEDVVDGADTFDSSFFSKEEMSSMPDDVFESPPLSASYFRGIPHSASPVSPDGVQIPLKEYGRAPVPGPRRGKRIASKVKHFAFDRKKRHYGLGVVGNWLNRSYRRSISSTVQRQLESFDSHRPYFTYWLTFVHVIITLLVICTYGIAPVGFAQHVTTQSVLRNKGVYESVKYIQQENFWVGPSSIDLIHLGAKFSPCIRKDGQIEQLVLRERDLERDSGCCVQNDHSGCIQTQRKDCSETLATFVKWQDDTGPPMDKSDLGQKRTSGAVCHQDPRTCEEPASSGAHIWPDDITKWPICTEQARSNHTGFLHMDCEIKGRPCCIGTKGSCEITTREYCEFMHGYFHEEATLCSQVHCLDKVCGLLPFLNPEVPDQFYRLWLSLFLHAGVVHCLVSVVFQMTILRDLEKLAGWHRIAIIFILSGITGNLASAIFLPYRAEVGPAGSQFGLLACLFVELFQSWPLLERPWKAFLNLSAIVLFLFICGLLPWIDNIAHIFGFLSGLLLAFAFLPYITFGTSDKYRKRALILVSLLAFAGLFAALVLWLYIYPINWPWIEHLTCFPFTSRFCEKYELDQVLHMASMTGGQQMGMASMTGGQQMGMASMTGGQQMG


Tests used:
hiR1-FL-WT-T7 = target: T1, hiR1-FL-WT-T7; assay: FACS on MEF-DKO-hiR1-FL-WT-T7 cells
hiR2-FL-L438S-T7 = target: T2, hiR2-FL-L438S-T7; assay: FACS, MEF-DKO cells, 3 µg/ml

Row | Binder | binding result (hiR1-FL-WT-T7) | loss of binding vs wild type (hiR2-FL-L438S-T7)
1 | antibody 3 (antibody, V domains shown, mouse IgG, kappa light chain; also called clone #3; purified antibody 3) VH: QVTLKESGPGILQPSQTLSLTCSFSGFSLTTFAMGIGWVRQPSGKGLEWLAHIWWDGEKYNNPVLKSRLTISKDTSKNQVFLRIANVDTPDTATYYCARISSIYYIIDNWGQGTSVTVSS VL: DIVLTQSPATLSVTPGHSVSLSCRASQSISNNLHWYQKKSHESPRLLIKYVSQSISGIPSRFSGSGSGTDFTLSINSVETEDFGMYFCQQSYNWPLTFGAGTKLELK | no binding (tested: 3 µg/ml) | –
2 | antibody 50 (antibody, V domains shown, mouse IgG, kappa light chain; also called clone #50; purified antibody 50) VH: QVQLQQSGAELVRPGASVKVSCKASGYAFSNYLIEWVKQRPGQGLEWIGVINPGSGFTKYNEKFKGKATLTADKSSSTAYMQLSSLTSEDSAVYFCARGLYRAMDYWGQGTSVTVSS VL: DIQMTQSPASQSASLGESVTITCLASQTIGTWLAWYQQKPGKSPQLLIYAAASLADGVPSRFSGGGSGTKFSFKISSLQAEDFVNYYCQQIYSTPYTFGGGTKLEIK | – | ≥ 30%
